B1: Transforming acid coiled-coil-containing protein 1 (Caenorhabditis elegans), G5ECG0 (parent)
chain: MSLNTTFTKEDGTEVVIPFNGSQNGHPENEEPEVEEAAEPSSSVETLCGATRGDIIVMKHTTKALTELIERLLHSDEFEVRRCSNGQIISQGRCNGTTPGNGIGGGGASSEELEKALKDRDAARAEADKLHANYATLFASFNTVREAANDIRGEYEDARDKLKLAAAEVDEWQAKFLAVKDNANSELERASVEYDDLLRSHDENTKGLRLRVKRQEIELSSKNDEIKVLTNRVSELSQICDQLLNDVDVSDGMSVISTDA
partner: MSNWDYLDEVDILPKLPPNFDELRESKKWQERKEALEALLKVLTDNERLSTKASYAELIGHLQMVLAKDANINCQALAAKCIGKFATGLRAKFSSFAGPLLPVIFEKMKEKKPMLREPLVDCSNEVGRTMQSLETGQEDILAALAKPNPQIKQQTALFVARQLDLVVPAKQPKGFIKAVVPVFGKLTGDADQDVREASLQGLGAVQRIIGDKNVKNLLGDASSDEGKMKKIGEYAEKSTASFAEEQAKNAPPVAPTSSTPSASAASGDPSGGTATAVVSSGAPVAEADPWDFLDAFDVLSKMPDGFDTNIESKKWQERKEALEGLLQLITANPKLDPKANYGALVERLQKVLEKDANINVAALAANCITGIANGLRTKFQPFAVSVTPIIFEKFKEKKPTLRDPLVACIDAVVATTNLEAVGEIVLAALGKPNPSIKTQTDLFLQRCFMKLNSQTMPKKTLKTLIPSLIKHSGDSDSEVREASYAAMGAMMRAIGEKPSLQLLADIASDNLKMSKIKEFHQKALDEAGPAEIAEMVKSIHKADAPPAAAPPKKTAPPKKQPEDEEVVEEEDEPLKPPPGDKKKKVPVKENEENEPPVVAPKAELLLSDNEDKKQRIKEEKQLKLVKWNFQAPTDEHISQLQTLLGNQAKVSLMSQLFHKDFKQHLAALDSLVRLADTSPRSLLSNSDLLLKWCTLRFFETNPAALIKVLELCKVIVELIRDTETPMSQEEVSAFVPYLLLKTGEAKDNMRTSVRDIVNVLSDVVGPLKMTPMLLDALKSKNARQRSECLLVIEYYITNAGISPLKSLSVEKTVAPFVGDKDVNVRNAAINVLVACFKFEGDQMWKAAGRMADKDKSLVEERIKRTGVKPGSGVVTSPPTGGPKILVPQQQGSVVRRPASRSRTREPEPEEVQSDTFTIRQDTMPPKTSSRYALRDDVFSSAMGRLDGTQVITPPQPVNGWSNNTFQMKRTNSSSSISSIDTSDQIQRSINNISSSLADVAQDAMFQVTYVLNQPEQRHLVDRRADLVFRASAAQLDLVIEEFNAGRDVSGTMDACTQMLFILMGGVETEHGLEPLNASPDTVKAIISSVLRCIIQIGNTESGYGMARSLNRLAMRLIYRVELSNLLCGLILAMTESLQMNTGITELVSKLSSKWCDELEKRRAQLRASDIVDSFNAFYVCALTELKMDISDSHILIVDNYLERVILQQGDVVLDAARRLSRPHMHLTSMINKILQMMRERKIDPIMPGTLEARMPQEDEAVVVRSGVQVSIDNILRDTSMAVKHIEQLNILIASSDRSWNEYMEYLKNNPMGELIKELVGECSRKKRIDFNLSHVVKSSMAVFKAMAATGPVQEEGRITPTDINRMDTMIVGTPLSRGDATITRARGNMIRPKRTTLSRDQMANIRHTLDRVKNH
B2: Zygote defective protein 9 (Caenorhabditis elegans), G5EEM5 (parent)
chain: B1 partner
partner: B1 chain

Variants of: B1
Conditions: with zyg9_caeel zyg-9, G5EEM5

Variant | effect of a mutation on the interaction
MSLNTTFTKEDGTEVVIPFNGSQNGHPENEEPEVEEAAEPSSSVETLCGATRGDIIVMKHTTKALTELIERLLHSDEFEVRRCSNGQIISQGRCNGTTPGNGIGGGGASSEELEKALKDRDAARAEADKLHANYATLFASFNTVREAANDIRGEYEDARDKLKLAAAEVDEWQAKFLAVKDNANSELERASVEYDDLLRSHDENTKGLRLRVKRQEIELSSKNDEIKVFTNRVSELSQICDQLLNDVDVSDGMSVISTDA [L229F] | decreasing interaction

Variants of: B2
Conditions: with tacc1_caeel tac-1, G5ECG0

Variant | effect of a mutation on the interaction
I862K | decreasing interaction
E1317K | decreasing interaction

Reference: IntAct's records for PubMed 17666432
